Columns and labels:
Aβ1-42 peptide [1] = assay: cell-based or functional assay
Aβ1-42 peptide [2] = assay: cell-based or functional assay; remark: listed apart in the source

Inhibition (%) of Aβ1-42 aggregation and fibril formation, ThT fluorescence, 44.30 µmol/L peptide with 11.07 µmol/L Aβ1-42, 37° C., 24 h (Aβ1-42 peptide [1])	T1/2, time point at which the ThT fluorescence intensity reaches the half-peak (Aβ1-42 peptide [2])	Binder
24.8%		HKQLVFFEED [H101]
14.9%		HQKLVFFAED [H103]
27.8%	96 h	HKQLPFFEED [H102]
